Experimental data taken from US20050266009A1.
Positions count from the first letter of the chain named. Blank lines part the entries; values can stand above or below the binder they belong to.

Tests used:
[1] = target: T1, CCR5 (residues 1-18) derived peptide sulfated at 1st tyrosine position; assay: ELISA on coated peptide
T1 sequence (peptide, sulfated at 1st tyrosine position): MDYQVSSPIYDINYYTSE

[2] = target: T2, CCR5 (residues 1-18) derived peptide sulfated at 2nd tyrosine position; assay: ELISA on coated peptide
T2 sequence (peptide, sulfated at 2nd tyrosine position): MDYQVSSPIYDINYYTSE

[3] = target: T3, CCR5 (residues 1-18) derived peptide sulfated at 3rd tyrosine position; assay: ELISA on coated peptide
T3 sequence (peptide, sulfated at 3rd tyrosine position): MDYQVSSPIYDINYYTSE

[4] = target: T4, GPIb (residues 268-285) derived peptide sulfated at 1st tyrosine position; assay: ELISA on coated peptide
T4 sequence (peptide, sulfated at 1st tyrosine position): GDEGDTDLYDYYPEEDTE

[5] = target: T5, GPIb (residues 268-285) derived peptide sulfated at 3rd tyrosine position; assay: ELISA on coated peptide
T5 sequence (peptide, sulfated at 3rd tyrosine position): GDEGDTDLYDYYPEEDTE

[6] = target: T6, PSGL-1 (residues 42-58) derived peptide sulfated at 1st tyrosine position; assay: ELISA on coated peptide
T6 sequence (peptide, sulfated at 1st tyrosine position): QATEYEYLDYDFLPETE

[7] = target: T7, PSGL-1 (residues 42-58) derived peptide sulfated at 2nd tyrosine position; assay: ELISA on coated peptide
T7 sequence (peptide, sulfated at 2nd tyrosine position): QATEYEYLDYDFLPETE

[8] = target: T8, PSGL-1 (residues 42-58) derived peptide sulfated at 3rd tyrosine position; assay: ELISA on coated peptide
T8 sequence (peptide, sulfated at 3rd tyrosine position): QATEYEYLDYDFLPETE

[9] = target: GPIb on guinea pig platelets (guinea pig); assay: cell-based or functional assay
[10] = target: T9, PSGL-1 (P-Selectin Glycoprotein Ligand-1) on cells (human) (UniProt Q14242); assay: FACS on ML-2 cells in PBS, purified scFv
T9 sequence (looked up): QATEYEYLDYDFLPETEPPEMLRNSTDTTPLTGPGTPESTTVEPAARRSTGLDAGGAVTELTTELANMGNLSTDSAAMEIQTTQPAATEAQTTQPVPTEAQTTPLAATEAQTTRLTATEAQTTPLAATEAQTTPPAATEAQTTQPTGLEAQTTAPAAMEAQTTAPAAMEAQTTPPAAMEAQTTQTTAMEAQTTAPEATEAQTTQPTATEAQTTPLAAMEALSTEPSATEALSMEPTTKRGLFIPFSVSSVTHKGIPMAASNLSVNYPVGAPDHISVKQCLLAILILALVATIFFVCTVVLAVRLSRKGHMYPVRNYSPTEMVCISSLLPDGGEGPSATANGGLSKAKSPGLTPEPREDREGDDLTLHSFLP

[11] = target: T9, PSGL-1 (P-Selectin Glycoprotein Ligand-1) on cells (human); assay: FACS on ML-2 cells in 50% plasma, purified scFv
[12] = target: T9, PSGL-1 (P-Selectin Glycoprotein Ligand-1) on cells (human); assay: FACS, whole blood sample #1, monocytes, 1 µg scFv
[13] = target: T9, PSGL-1 (P-Selectin Glycoprotein Ligand-1) on cells (human); assay: FACS, whole blood sample #2, monocytes, 1 µg scFv
[14] = target: T9, PSGL-1 (P-Selectin Glycoprotein Ligand-1) on cells (human); assay: FACS, whole blood sample #1, lymphocytes, 1 µg scFv
[15] = target: T9, PSGL-1 (P-Selectin Glycoprotein Ligand-1) on cells (human); assay: FACS, whole blood sample #1, monocytes, 0.1 µg scFv
[16] = target: T9, PSGL-1 (P-Selectin Glycoprotein Ligand-1) on cells (human); assay: FACS, whole blood sample #1, monocytes, 0.5 µg scFv
[17] = target: T9, PSGL-1 (P-Selectin Glycoprotein Ligand-1) on cells (human); assay: FACS, whole blood sample #2, lymphocytes, 1 µg scFv
[18] = target: T9, PSGL-1 (P-Selectin Glycoprotein Ligand-1) on cells (human); assay: FACS, whole blood sample #2, monocytes, 0.1 µg scFv
[19] = target: T9, PSGL-1 (P-Selectin Glycoprotein Ligand-1) on cells (human); assay: FACS, whole blood sample #2, monocytes, 0.5 µg scFv
[20] = target: T9, PSGL-1 (P-Selectin Glycoprotein Ligand-1) on cells (human); assay: FACS, whole blood sample #1, granulocytes, 1 µg scFv
[21] = target: T9, PSGL-1 (P-Selectin Glycoprotein Ligand-1) on cells (human); assay: FACS, whole blood sample #2, granulocytes, 1 µg scFv
[22] = target: T9, PSGL-1 (P-Selectin Glycoprotein Ligand-1) on cells (human); assay: FACS, whole blood sample #1, lymphocytes, 0.1 µg scFv
[23] = target: T9, PSGL-1 (P-Selectin Glycoprotein Ligand-1) on cells (human); assay: FACS, whole blood sample #1, lymphocytes, 0.5 µg scFv
[24] = target: T9, PSGL-1 (P-Selectin Glycoprotein Ligand-1) on cells (human); assay: FACS, whole blood sample #2, lymphocytes, 0.1 µg scFv
[25] = target: T9, PSGL-1 (P-Selectin Glycoprotein Ligand-1) on cells (human); assay: FACS, whole blood sample #2, lymphocytes, 0.5 µg scFv
[26] = target: T9, PSGL-1 (P-Selectin Glycoprotein Ligand-1) on cells (human); assay: FACS, whole blood sample #1, granulocytes, 0.1 µg scFv
[27] = target: T9, PSGL-1 (P-Selectin Glycoprotein Ligand-1) on cells (human); assay: FACS, whole blood sample #1, granulocytes, 0.5 µg scFv
[28] = target: T9, PSGL-1 (P-Selectin Glycoprotein Ligand-1) on cells (human); assay: FACS, whole blood sample #2, granulocytes, 0.1 µg scFv
[29] = target: T9, PSGL-1 (P-Selectin Glycoprotein Ligand-1) on cells (human); assay: FACS, whole blood sample #2, granulocytes, 0.5 µg scFv
[30] = target: glycocalicin (UniProt P07359); assay: SPR (BIAcore 3000), glycocalicin immobilized on CM5 chip
[31] = target: GPIb on human platelets (human) (UniProt P07359); assay: FACS on platelets, PRP sample #1, 1 µg scFv; PRP sample #1, 1 µg scFv
[32] = target: GPIb on human platelets (human) (UniProt P07359); assay: FACS on platelets, PRP sample #1, 2 µg scFv; PRP sample #1, 2 µg scFv
[33] = target: GPIb on human platelets (human) (UniProt P07359); assay: FACS on platelets, PRP sample #2, 1 µg scFv; PRP sample #2, 1 µg scFv
[34] = target: GPIb on human platelets (human) (UniProt P07359); assay: FACS on platelets, PRP sample #2, 2 µg scFv; PRP sample #2, 2 µg scFv
[35] = target: GPIb on human platelets (human) (UniProt P07359); assay: FACS on platelets in PRP, 1 µg scFv; mean of PRP samples #1 and #2, 1 µg scFv
[36] = target: T10, CCR5 (residues 1-18) derived peptide, non-sulfated; assay: ELISA on coated peptide
T10 sequence (peptide): MDYQVSSPIYDINYYTSE

[37] = target: T11, GPIb (residues 268-285) derived peptide, non-sulfated; assay: ELISA on coated peptide
T11 sequence (peptide): GDEGDTDLYDYYPEEDTE

[38] = target: T12, PSGL-1 (residues 42-58) derived peptide, non-sulfated; assay: ELISA on coated peptide
T12 sequence (peptide): QATEYEYLDYDFLPETE

[39] = target: GPIb on guinea pig platelets (guinea pig); assay: FACS on guinea pig platelets

Sequence of GPIb on human platelets (human) (P07359 17-652): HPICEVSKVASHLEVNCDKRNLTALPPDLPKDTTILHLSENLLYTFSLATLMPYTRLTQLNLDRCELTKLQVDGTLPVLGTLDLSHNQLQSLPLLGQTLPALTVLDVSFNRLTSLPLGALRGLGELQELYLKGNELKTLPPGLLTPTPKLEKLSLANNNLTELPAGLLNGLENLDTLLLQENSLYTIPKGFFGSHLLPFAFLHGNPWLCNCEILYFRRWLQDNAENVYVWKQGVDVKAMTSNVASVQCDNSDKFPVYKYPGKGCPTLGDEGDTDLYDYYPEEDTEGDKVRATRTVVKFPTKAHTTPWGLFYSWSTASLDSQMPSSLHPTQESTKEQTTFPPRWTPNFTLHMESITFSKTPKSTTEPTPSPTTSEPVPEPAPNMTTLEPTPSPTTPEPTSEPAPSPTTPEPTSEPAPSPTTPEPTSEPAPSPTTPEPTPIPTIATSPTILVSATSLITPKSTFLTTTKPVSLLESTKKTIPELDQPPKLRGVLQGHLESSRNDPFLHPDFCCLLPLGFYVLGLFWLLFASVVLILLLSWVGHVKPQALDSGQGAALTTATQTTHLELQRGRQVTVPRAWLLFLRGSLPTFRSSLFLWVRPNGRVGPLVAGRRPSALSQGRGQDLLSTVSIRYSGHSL
Sequence of glycocalicin (P07359 17-531 limits assumed): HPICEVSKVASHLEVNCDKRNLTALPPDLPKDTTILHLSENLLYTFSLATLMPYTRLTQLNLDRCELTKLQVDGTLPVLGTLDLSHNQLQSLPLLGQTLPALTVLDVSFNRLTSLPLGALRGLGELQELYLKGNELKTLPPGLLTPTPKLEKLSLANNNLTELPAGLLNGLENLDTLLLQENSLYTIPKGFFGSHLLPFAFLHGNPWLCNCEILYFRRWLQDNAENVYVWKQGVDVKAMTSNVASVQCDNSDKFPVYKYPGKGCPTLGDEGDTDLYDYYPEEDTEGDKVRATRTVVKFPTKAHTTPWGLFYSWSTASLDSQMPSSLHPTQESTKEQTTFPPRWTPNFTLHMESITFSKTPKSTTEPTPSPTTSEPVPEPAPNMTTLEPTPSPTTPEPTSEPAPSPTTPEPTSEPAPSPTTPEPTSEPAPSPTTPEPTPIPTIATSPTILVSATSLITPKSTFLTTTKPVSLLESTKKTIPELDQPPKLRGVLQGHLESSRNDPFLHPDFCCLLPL

ELISA reading at 450 nm [1]: 0.12
ELISA reading at 450 nm [2]: 0.3
ELISA reading at 450 nm [3]: 0.16
ELISA reading at 450 nm [4]: 0.6
ELISA reading at 450 nm [5]: 0.3
ELISA reading at 450 nm [6]: 0.02
ELISA reading at 450 nm [7]: 0.2
ELISA reading at 450 nm [8]: 0.6
inhibition of guinea pig platelet aggregation, IC50 [9]: 80 to 160 µg/mL
fold binding compared to L32 and Y1 [10]: > 100 fold
fold binding compared to L32 and Y1 [11]: > 10 fold
Geo Mean [12]: 290
Geo Mean [13]: 340
Geo Mean [14]: 120
Geo Mean [15]: 56
Geo Mean [16]: 192
Geo Mean [17]: 112
Geo Mean [18]: 69
Geo Mean [19]: 248
Geo Mean [20]: 150
Geo Mean [21]: 220
Geo Mean [22]: 36
Geo Mean [23]: 81
Geo Mean [24]: 18
Geo Mean [25]: 78
Geo Mean [26]: 26
Geo Mean [27]: 100
Geo Mean [28]: 44
Geo Mean [29]: 151
Kd [30]: 180 nM
koff [30]: 0.43 s⁻¹
Geo Mean [31]: 30
Geo Mean [32]: 120
Geo Mean [33]: 23
Geo Mean [34]: 68
average geo mean of both PRP samples [35]: 26
B1: S15 scFv (scFv)
scFv: EVQLVESGGGVVRPGGSLRLSCAASGFTFDLNPKVKHMWVRQAPGKGLEWVSGINWNGGSTGYADSVKGRFTISRDNAKNSLYLQMNSLRAEDTAVYYCARLRRPSIWGQGTLVTVSRGGGGSGGGGSGGGGSSELTQDPAVSVALGQTVRITCQGDSLRSYYASWYQQKPGQAPVLVIYGKNNRPSGIPDRFSGSSSGNTASLTITGAQAEDEADYYCNSRDSSGNHVVFGGGTKLTVLGAAAEQKLISEEDLNGAA

ELISA reading at 450 nm [1]: 0.07
ELISA reading at 450 nm [2]: 0.3
ELISA reading at 450 nm [3]: 0.07
ELISA reading at 450 nm [36]: 0.06
ELISA reading at 450 nm [4]: 0.8
ELISA reading at 450 nm [5]: 0.15
ELISA reading at 450 nm [37]: 0.07
ELISA reading at 450 nm [6]: 0.1
ELISA reading at 450 nm [7]: 0.08
ELISA reading at 450 nm [8]: 0.8
ELISA reading at 450 nm [38]: 0.07
fold binding capacity relative to Y1 [39]: 25 fold
B2: S1 scFv (scFv, from a related filing)
scFv: B1 scFv with R104P, S106F, I107L

ELISA reading at 450 nm [1]: 0.12
ELISA reading at 450 nm [2]: 0.7
ELISA reading at 450 nm [3]: 0.11
ELISA reading at 450 nm [36]: 0.08
ELISA reading at 450 nm [4]: 0.6
ELISA reading at 450 nm [5]: 0.3
ELISA reading at 450 nm [37]: 0.1
ELISA reading at 450 nm [6]: 0.16
ELISA reading at 450 nm [7]: 0.12
ELISA reading at 450 nm [8]: 0.7
ELISA reading at 450 nm [38]: 0.01
fold binding capacity relative to Y1 [39]: 25 fold
B3: S11 scFv (scFv, from a related filing)
scFv: B1 scFv with R104Y, S106F, I107F
